In PMC4633494, “An antennal carboxylesterase from Drosophila melanogaster, esterase 6, is a candidate odorant-degrading enzyme toward food odorants” (Frontiers in Physiology, 2015):

Legend:
Settings in all cases: concentrated culture medium, enzyme titrated, GC-MS assay at pH 8.0, 25 mM Tris-HCl, 200 µM substrate, BSA, 5% ethanol
[1] = substrate: CCCOC(=O)CCC; test: cells, lysate or membranes
[2] = substrate: CCCCCOC(C)=O; test: competitive inhibition of 4-nitrophenyl acetate hydrolysis (Ki taken as Km); kcat from GC-MS substrate loss; format: biochemical, Drosophila melanogaster
Excerpt: (§1) competitive inhibition of 4-nitrophenyl acetate hydrolysis (Ki taken as Km); kcat from GC-MS substrate loss on EST-6 (EST-6^F), esterase 6

[3] = substrate: CCCCCCCCOC(=O)CC; test: as above; format: biochemical, Drosophila melanogaster
Excerpt: as §1

B1: EST-6 (EST-6^F), esterase 6 (Drosophila melanogaster) (protein)
chain: SDTDDPLLVQLPQGKLRGRDNGSYYSYESIPYAEPPTGDLRFEAPEPYKQKWSDIFDATKTPVACLQWDQFTPGANKLVGEEDCLTVSVYKPKNSKRNSFPVVAHIHGGAFMFGAAWQNGHENVMREGKFILVKISYRLGPLGFVSTGDRDLPGNYGLKDQRLALKWIKQNIASFGGEPQNVLLVGHSAGGASVHLQMLREDFGQLARAAFSFSGNALDPWVIQKGARGRAFELGRNVGCESAEDSTSLKKCLKSKPASELVTAVRKFLIFSYVPFAPFSPVLEPSDAPDAIITQDPRDVIKSGKFGQVPWAVSYVTEDGGYNAALLLKERKSGIVIDDLNERWLELAPYLLFYRDTKTKKDMDDYSRKIKQEYIGNQRFDIESYSELQRLFTDILFKNSTQESLDLHRKYGKSPAYAYVYDNPAEKGIAQVLANRTDYDFGTVHGDDYFLIFENFVRDVEMRPDEQIISRNFINMLADFASSDNGSLKYGECDFKDNVGSEKFQLLAIYIDGCQNRQHVEFP
notes: natural allele expressed behind its own signal peptide (secreted) with BacuVance baculovirus system (Genscript); no tag told
Which results are given for B1?
Km [1]: 18.3 mM; kcat [1]: 1670 s⁻¹; Km [2]: 2.93 mM; kcat [2]: 969 ± 215 s⁻¹; Km [3]: 3.16 mM; kcat [3]: 4520 ± 1680 s⁻¹
